# Laboratory results: publication PMC5700813, “A recombinant BBSome core complex and how it interacts with ciliary cargo” (eLife, 2017)
# Where two headings read alike, the source gives them in different places. Ends that are not written are not given here. fluorescein = fluorescein, N-terminal fluorescent label
# B1: BBS9 C-terminal part (residues 363–887) (domain or fragment, human, UniProt Q3SYG4-1 363-887, looked up)
# chain: PSLFQAPNVQSRELNYDELDVEMKELQKIIKDVNKSQGVWPMTEREDDLNVSVVVSPNFDSVSQATDVEVGTDLVPSVTVKVTLQNRVILQKAKLSVYVQPPLELTCDQFTFEFMTPDLTRTVSFSVYLKRSYTPSELEGNAVVSYSRPTDRNPDGIPRVIQCKFRLPLKLICLPGQPSKTASHKITIDTNKSPVSLLSLFPGFASQSDDDQVNVMGFHFLGGARITVLASKTSQRYRIQSEQFEDLWLITNELILRLQEYFEKQGVKDFACSFSGSIPLQEYFELIDHHFELRINGEKLEELLSERAVQFRAIQRRLLARFKDKTPAPLQHLDTLLDGTYKQVIALADAVEENQGNLFQSFTRLKSATHLVILLIALWQKLSADQVAILEAAFLPLQEDTQELGWEETVDAAISHLLKTCLSKSSKEQALNLNSQLNIPKDTSQLKKHITLLCDRLSKGGRLCLSTDAAAPQTMVMPGGCTTIPESDLEERSVEQDSTELFTNHRHLTAETPRPEVSPLQGVSE
# notes: BBS9, human, residues 363-887 (GAE, platform and alpha-helical domains); also called C-terminal domain of BBS9; C-terminal appendage part; source: Hi5 insect cells (baculovirus); alone, purified, or co-expressed with BBS1
# B2: BBS1 (aa1-430) (domain or fragment, human, UniProt Q8NFJ9-1 1-430, looked up)
# chain: MAAASSSDSDACGAESNEANSKWLDAHYDPMANIHTFSACLALADLHGDGEYKLVVGDLGPGGQQPRLKVLKGPLVMTESPLPALPAAAATFLMEQHEPRTPALALASGPCVYVYKNLRPYFKFSLPQLPPNPLEQDLWNQAKEDRIDPLTLKEMLESIRETAEEPLSIQSLRFLQLELSEMEAFVNQHKSNSIKRQTVITTMTTLKKNLADEDAVSCLVLGTENKELLVLDPEAFTILAKMSLPSVPVFLEVSGQFDVEFRLAAACRNGNIYILRRDSKHPKYCIELSAQPVGLIRVHKVLVVGSTQDSLHGFTHKGKKLWTVQMPAAILTMNLLEQHSRGLQAVMAGLANGEVRIYRDKALLNVIHTPDAVTSLCFGRYGREDNTLIMTTRGGGLIIKILKRTAVFVEGGSEVGPPPAQAMKLNVPRK
# notes: BBS1, human, residues 1-430; also called BBS1 ß-propeller domain; truncated BBS1 subunit; source: Hi5 insect cells (baculovirus), purified
# B3: BBS9 (full length) (natural protein, human, UniProt Q3SYG4-1 1-887, looked up)
# chain: MSLFKARDWWSTILGDKEEFDQGCLCLANVDNSGNGQDKIIVGSFMGYLRIFSPHPAKTGDGAQAEDLLLEVDLRDPVLQVEVGKFVSGTEMLHLAVLHSRKLCVYSVSGTLGNVEHGNQCQMKLMYEHNLQRTACNMTYGSFGGVKGRDLICIQSMDGMLMVFEQESYAFGRFLPGFLLPGPLAYSSRTDSFLTVSSCQQVESYKYQVLAFATDADKRQETEQQKLGSGKRLVVDWTLNIGEQALDICIVSFNQSASSVFVLGERNFFCLKDNGQIRFMKKLDWSPSCFLPYCSVSEGTINTLIGNHNNMLHIYQDVTLKWATQLPHIPVAVRVGCLHDLKGVIVTLSDDGHLQCSYLGTDPSLFQAPNVQSRELNYDELDVEMKELQKIIKDVNKSQGVWPMTEREDDLNVSVVVSPNFDSVSQATDVEVGTDLVPSVTVKVTLQNRVILQKAKLSVYVQPPLELTCDQFTFEFMTPDLTRTVSFSVYLKRSYTPSELEGNAVVSYSRPTDRNPDGIPRVIQCKFRLPLKLICLPGQPSKTASHKITIDTNKSPVSLLSLFPGFASQSDDDQVNVMGFHFLGGARITVLASKTSQRYRIQSEQFEDLWLITNELILRLQEYFEKQGVKDFACSFSGSIPLQEYFELIDHHFELRINGEKLEELLSERAVQFRAIQRRLLARFKDKTPAPLQHLDTLLDGTYKQVIALADAVEENQGNLFQSFTRLKSATHLVILLIALWQKLSADQVAILEAAFLPLQEDTQELGWEETVDAAISHLLKTCLSKSSKEQALNLNSQLNIPKDTSQLKKHITLLCDRLSKGGRLCLSTDAAAPQTMVMPGGCTTIPESDLEERSVEQDSTELFTNHRHLTAETPRPEVSPLQGVSE
# notes: BBS9, human, as NM_198428.2 (887 residues by the printed range 363-887); source: Hi5 insect cells (baculovirus); alone, purified, or co-expressed with other subunits
# B4: SSTR3 3ICL (peptide)
# peptide: fluorescein-VKVRSAGRRVWAPSCQRRRRSERRVTRM
# notes: SSTR3, third intracellular loop; source: synthetic peptide, bought: Proteogenix
# Experiments:
# 5HT6 CT (human) [1] = molecular target: T1, 5HT6 CT (human (from the printed UniProt accession)); assay: fluorescence polarisation; fluorescein-labelled peptide or Smo fragment (0.1–1 µM) titrated with core BBSome or BBS1 (aa1-430); quadratic binding fit
# Smo CT2 (human) = molecular target: Smo CT2 (human (from the printed UniProt accession)); assay: as above
# SSTR3 CT2 (human) = molecular target: SSTR3 CT2 (human (from the printed UniProt accession)); assay: as above
# Smo CT7 (human) = molecular target: Smo CT7 (human (from the printed UniProt accession)); assay: as above
# GPR161 CT2 (human) = molecular target: GPR161 CT2 (human (from the printed UniProt accession)); assay: as above
# NMU 3ICL2 (human) = molecular target: NMU 3ICL2 (human (from the printed UniProt accession)); assay: as above
# SSTR3 CT1 (human) = molecular target: SSTR3 CT1 (human (from the printed UniProt accession)); assay: as above
# Smo CT6 (human) = molecular target: Smo CT6 (human (from the printed UniProt accession)); assay: as above
# Smo CT8 (human) = molecular target: Smo CT8 (human (from the printed UniProt accession)); assay: as above
# 5HT6 CT (human) [2] = molecular target: T1, 5HT6 CT (human); assay: as above; remark: listed apart in the source
# SSTR3 CT4 (human) = molecular target: SSTR3 CT4 (human (from the printed UniProt accession)); assay: as above
# [3] = molecular target: fluoresceine-labeled Smo (R546-L665) (human (from the printed UniProt accession)) (UniProt Q99835); assay: as above
# SSTR3 CT5 (human) = molecular target: SSTR3 CT5 (human (from the printed UniProt accession)); assay: as above
# Smo CT1 (human) = molecular target: Smo CT1 (human (from the printed UniProt accession)); assay: as above
# GPR161 CT1 (human) = molecular target: GPR161 CT1 (human (from the printed UniProt accession)); assay: as above
# SSTR3 CT9 (human) = molecular target: SSTR3 CT9 (human (from the printed UniProt accession)); assay: as above
# SSTR3 CT6 (human) = molecular target: SSTR3 CT6 (human (from the printed UniProt accession)); assay: as above
# Smo CT3 (human) = molecular target: Smo CT3 (human (from the printed UniProt accession)); assay: as above
# SSTR3 CT7 (human) = molecular target: SSTR3 CT7 (human (from the printed UniProt accession)); assay: as above
# SSTR3 CT8 (human) = molecular target: SSTR3 CT8 (human (from the printed UniProt accession)); assay: as above
# SSTR3 CT3 (human) = molecular target: SSTR3 CT3 (human (from the printed UniProt accession)); assay: as above
# Smo CT5 (human) = molecular target: Smo CT5 (human (from the printed UniProt accession)); assay: as above
# GPR161 3ICL (human) = molecular target: GPR161 3ICL (human (from the printed UniProt accession)); assay: as above
# Smo CT4 (human) = molecular target: Smo CT4 (human (from the printed UniProt accession)); assay: as above
# NMU 3ICL1 (human) = molecular target: NMU 3ICL1 (human (from the printed UniProt accession)); assay: as above
# SSTR3 3ICL (human) = molecular target: SSTR3 3ICL (human (from the printed UniProt accession)); assay: as above
# MCH 3ICL (human) = molecular target: MCH 3ICL (human (from the printed UniProt accession)); assay: as above
# [4] = molecular target: the molecule itself; assay: SEC; samples purified by affinity chromatography and gel filtration; 2.5–10 µg of the peak fraction on a Superdex 200 5/20 column; elution volume against standard proteins
# SSTR3 CT2 = molecular target: T2, SSTR3 CT2 (human (from the printed UniProt …, fluorescein on the N-terminus)); assay: fluorescence polarisation; fluorescein-labelled peptide or Smo fragment (0.1–1 µM) titrated with core BBSome or BBS1 (aa1-430); quadratic binding fit; details: both partners purified
# T2 construct: SSTR3, three residues of the 7th transmembrane region and 21 of the C-terminus; limits worked out from the printed RRVR 333-336; source: synthetic peptide, bought: Proteogenix
# T2 peptide: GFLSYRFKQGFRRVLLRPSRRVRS
# [5] = molecular target: the molecule itself; assay: SEC; full length BBS9 at high concentrations; at lower concentrations the single peak shifts to lower molecular weight (fast equilibrium between monomer and dimer)
# BBS1 (aa1-430) = molecular target: B2; assay: fluorescence polarisation; fluorescein-labelled peptide or Smo fragment (0.1–1 µM) titrated with core BBSome or BBS1 (aa1-430); quadratic binding fit; details: both partners purified
# T1 sequence (P50406 325-344): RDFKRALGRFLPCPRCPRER
# Sequence of GPR161 CT2 (human (Q8N6U8 489-510): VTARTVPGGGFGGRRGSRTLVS
# Sequence of fluoresceine-labeled Smo (R546-L665) (human (Q99835 546-665): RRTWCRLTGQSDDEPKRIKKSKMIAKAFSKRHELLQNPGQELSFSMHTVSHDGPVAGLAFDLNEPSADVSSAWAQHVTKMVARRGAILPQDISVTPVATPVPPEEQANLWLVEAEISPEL
# Sequence of MCH 3ICL (human (peptide, as listed by the source): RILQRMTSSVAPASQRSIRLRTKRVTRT
# Sequence of NMU 3ICL1 (human (peptide, as listed by the source): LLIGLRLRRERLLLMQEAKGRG
# Sequence of GPR161 CT1 (human (Q8N6U8 328-354): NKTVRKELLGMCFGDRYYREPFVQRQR
# Sequence of Smo CT3 (human (Q99835 541-577): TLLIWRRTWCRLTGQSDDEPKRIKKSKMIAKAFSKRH
# Sequence of NMU 3ICL2 (human (Q9HB89 271-294): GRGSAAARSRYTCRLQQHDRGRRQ
molecule,measurement,setting,value
"6mer BBSome core complex (BBS1, 4, 5, 8, 9 and 18) (from UniProt Q8NFJ9-1 1-593; Q96RK4-1 1-519; Q8N3I7-1 1-341; Q8TAM2 1-541; Q3SYG4-1 1-887; A8MTZ0-1 1-92)",Kd,5HT6 CT (human) [1],> 50 µM
same,Kd,Smo CT2 (human),> 100 µM
same,Kd,SSTR3 CT2 (human),0.11 µM
same,Kd,Smo CT7 (human),14.3 µM
same,Kd,GPR161 CT2 (human),> 100 µM
same,Kd,NMU 3ICL2 (human),> 100 µM
same,Kd,SSTR3 CT1 (human),22.1 µM
same,Kd,Smo CT6 (human),12.5 µM
same,Kd,Smo CT8 (human),6.8 µM
same,Kd,5HT6 CT (human) [2],44.2 µM
same,Kd,SSTR3 CT4 (human),0.4 µM
same,Kd,[3],36.1 µM
same,Kd,SSTR3 CT5 (human),1.5 µM
same,Kd,Smo CT1 (human),1.8 µM
same,Kd,GPR161 CT1 (human),67.4 µM
same,Kd,SSTR3 CT9 (human),4.7 µM
same,Kd,SSTR3 CT6 (human),4.5 µM
same,Kd,Smo CT3 (human),1.4 µM
same,Kd,SSTR3 CT7 (human),1 µM
same,Kd,SSTR3 CT8 (human),11 µM
same,Kd,SSTR3 CT3 (human),1.1 µM
same,Kd,Smo CT5 (human),9.7 µM
same,Kd,GPR161 3ICL (human),6.3 µM
same,Kd,Smo CT4 (human),1.1 µM
same,Kd,NMU 3ICL1 (human),18.1 µM
same,Kd,SSTR3 3ICL (human),12.8 µM
same,Kd,MCH 3ICL (human),68.8 µM
B1,stoichiometry N,[4],2
B2,fold lower affinity than to the core BBSome,SSTR3 CT2,~100 fold
B3,stoichiometry N,[5],2
B4,binding result,BBS1 (aa1-430),binds
